Data published in article PMC9169624.

Tests used:
Human RPA (hRPA) = Human RPA (hRPA) (Homo sapiens, UniProt P27694;P15927;P35244 1-616;1-270;1-121); assay: EMSA; human RPA alone; EMSA: 2.5 nM DNA (5 nM in Fig. S1F); PIFE: 2 nM DNA for Kd; buffer, salt, pH and temperature not in the supplied material; optical tweezers at room temperature; details: protein: recombinant; copies: 1;1;1; label: 5'-Cy5; single strand
[1] = molecular target: HELB (DNA helicase B);Human RPA (hRPA) (Homo sapiens;Homo sapiens, UniProt Q8NG08;P27694;P15927;P35244 1-1087;1-616;1-270;1-121, |); assay: EMSA; HELB supershifts the human RPA-DNA complex; EMSA: 2.5 nM DNA (5 nM in Fig. S1F); PIFE: 2 nM DNA for Kd; buffer, salt, pH and temperature not in the supplied material; optical tweezers at room temperature; details: protein: recombinant;recombinant; copies: 1;1;1;1; label: 5'-Cy5; single strand
HELB (DNA helicase B) = HELB (DNA helicase B) (Homo sapiens, UniProt Q8NG08 1-1087); assay: PIFE fluorescence; EMSA: 2.5 nM DNA (5 nM in Fig. S1F); PIFE: 2 nM DNA for Kd; buffer, salt, pH and temperature not in the supplied material; optical tweezers at room temperature; details: protein: recombinant; label: 3'-Cy3; single strand
Sequence of HELB (DNA helicase B) (Q8NG08 whole entry): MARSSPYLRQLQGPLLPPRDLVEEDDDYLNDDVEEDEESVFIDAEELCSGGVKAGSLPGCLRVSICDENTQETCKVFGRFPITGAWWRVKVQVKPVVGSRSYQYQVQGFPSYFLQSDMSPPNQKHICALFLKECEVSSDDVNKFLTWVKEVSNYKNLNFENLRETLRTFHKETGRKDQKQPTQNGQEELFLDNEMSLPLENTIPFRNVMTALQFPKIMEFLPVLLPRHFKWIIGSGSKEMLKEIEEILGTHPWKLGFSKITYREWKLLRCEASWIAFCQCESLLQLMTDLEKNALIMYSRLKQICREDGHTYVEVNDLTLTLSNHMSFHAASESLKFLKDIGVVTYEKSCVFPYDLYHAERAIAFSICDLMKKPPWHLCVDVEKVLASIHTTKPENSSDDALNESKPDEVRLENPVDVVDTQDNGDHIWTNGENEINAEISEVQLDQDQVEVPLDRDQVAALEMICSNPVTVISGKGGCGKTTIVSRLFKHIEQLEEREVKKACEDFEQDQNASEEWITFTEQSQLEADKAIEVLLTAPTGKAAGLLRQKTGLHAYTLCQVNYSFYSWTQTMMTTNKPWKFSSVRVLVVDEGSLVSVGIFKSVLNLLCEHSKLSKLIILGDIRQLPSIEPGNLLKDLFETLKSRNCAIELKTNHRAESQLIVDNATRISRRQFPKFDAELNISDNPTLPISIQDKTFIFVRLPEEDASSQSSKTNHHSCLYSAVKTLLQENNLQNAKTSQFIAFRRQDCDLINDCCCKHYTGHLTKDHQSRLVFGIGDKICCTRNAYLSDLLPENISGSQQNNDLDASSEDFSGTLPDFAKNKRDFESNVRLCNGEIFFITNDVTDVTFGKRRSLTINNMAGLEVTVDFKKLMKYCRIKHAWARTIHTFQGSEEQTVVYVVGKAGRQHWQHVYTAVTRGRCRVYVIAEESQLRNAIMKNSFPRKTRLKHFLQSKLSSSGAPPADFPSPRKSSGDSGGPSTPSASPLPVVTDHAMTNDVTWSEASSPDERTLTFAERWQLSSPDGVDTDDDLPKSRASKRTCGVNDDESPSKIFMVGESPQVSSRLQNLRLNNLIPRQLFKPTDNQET

Sequence of Human RPA (hRPA) (P27694 whole entry, chain 1 of 3): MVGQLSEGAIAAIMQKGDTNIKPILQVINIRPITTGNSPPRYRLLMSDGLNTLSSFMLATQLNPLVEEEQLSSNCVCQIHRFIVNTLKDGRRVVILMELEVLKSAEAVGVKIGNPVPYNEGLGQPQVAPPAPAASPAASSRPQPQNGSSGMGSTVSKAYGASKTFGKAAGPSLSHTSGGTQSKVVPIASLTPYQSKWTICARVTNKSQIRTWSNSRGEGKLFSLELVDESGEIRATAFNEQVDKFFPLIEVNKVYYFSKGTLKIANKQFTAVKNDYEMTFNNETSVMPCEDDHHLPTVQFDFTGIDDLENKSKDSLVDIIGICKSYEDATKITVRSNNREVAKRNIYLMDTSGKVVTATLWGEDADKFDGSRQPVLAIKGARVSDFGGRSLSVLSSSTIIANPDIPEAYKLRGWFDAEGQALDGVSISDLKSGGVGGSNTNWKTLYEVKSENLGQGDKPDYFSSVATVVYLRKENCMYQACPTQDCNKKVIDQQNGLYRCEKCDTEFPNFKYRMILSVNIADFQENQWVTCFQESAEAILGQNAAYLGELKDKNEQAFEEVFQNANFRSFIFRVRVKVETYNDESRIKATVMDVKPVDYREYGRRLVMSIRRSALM
Sequence of Human RPA (hRPA) (P15927 whole entry, chain 2 of 3): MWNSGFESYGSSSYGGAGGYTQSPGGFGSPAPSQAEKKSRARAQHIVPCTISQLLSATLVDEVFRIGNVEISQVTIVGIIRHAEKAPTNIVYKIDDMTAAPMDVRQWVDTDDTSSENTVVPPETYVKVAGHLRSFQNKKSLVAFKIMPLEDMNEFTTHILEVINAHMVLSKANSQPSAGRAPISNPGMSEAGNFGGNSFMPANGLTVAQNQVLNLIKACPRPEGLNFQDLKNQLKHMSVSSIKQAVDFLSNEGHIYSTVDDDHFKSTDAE
Sequence of Human RPA (hRPA) (P35244 whole entry, chain 3 of 3): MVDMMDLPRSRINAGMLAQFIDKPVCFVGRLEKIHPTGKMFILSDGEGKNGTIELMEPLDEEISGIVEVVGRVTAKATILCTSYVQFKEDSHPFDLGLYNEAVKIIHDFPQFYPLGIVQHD
Sequence of HELB (DNA helicase B);Human RPA (hRPA) (Q8NG08 whole entry, chain 1 of 4): as the sequence (Q8NG08 whole entry) above
Sequence of HELB (DNA helicase B);Human RPA (hRPA) (P27694 whole entry, chain 2 of 4): as the sequence (P27694 whole entry, chain 1 of 3) above
Sequence of HELB (DNA helicase B);Human RPA (hRPA) (P15927 whole entry, chain 3 of 4): as the sequence (P15927 whole entry, chain 2 of 3) above
Sequence of HELB (DNA helicase B);Human RPA (hRPA) (P35244 whole entry, chain 4 of 4): as the sequence (P35244 whole entry, chain 3 of 3) above

Binder	binding result (Human RPA (hRPA))	binding result [1]	Kd (HELB (DNA helicase B))
GCTTGCTAGGACGGATCGCTCGAGG (ssDNA) [EMSA 25mer]	binds	binds	–
TTTTTTTTTTTTTTTTTTTTTTTTTTTTTT (ssDNA) [poly(dT) 30mer]	–	–	~5 nM
